From publication PMC6313406

Molecular target: Dimeric Lip3 (isoenzyme 3 of Candida rugosa lipase) (Candida rugosa) (UniProt P32947)
Test: SEC; Sephacryl S200 column (1.6x60 cm), 25 mM Tris/HCl pH 7.5, 0.15 M NaCl, 0.3 mL/min, no detergent; calibrated with the high molecular weight marker kit

For “Dimeric Lip3 (isoenzyme 3 of Candida rugosa lipase) (from UniProt P32947 16-549)”, the stoichiometry N was 2.
